Test: soluble on expression in E. coli; label from the status in PepcDB or PDB records

Sequence	soluble on expression in E. coli
MTATSLWELAERARKRLSEIAKGNRDRALLAMADLLEARWEEVLRANREDLEEAERTGLPKAKLDRLALKEKDLKTLTEGLRQIARLPDPLGRIEGLAKRPNGLRVGRMRVPLGLIGFIYEARPGATVEAVSVALKAGNAMLLRGGKEAFRSNRALVALWHEALGEAGLPEEAVTLVPTTDREAVLEMCRLELLDLLIPRGGEELIRLVQREARVPVLAHAKGVNHLYVDKKADLSMALRLALNGKTQRPAVCNALETVLVHEKVAEAFLPRLEKAMREKGVELRACPRALPLLKEAVPAREDEWDREYLDLVLRVKVVSGLEEALAHIARYGSRHTEAICTEDPKAAWRFLEEVDASLVLWNASTRFNDGFELGLGAEIGISTSKLHAYGPMGPMELTTLKWVALGEGQERT	soluble
MFMIKVITPETNHPKEGGILSALVSIYNCTIHIRKPRFTADQYKKYLHDHNQLLSHFVLHEHHSLAKEFPVMGVHLKELDRINPAQVHPDIKIISTSIHSIADAGNLSHPFEYIFYSPLFQSISKENYGTNNSLADLKKTVSELKEQTGIPIIGLGGIYEANIDLVKKSGFDGAALLGAVWVQSDPLAAFGRIASMILEHHHHHH	not soluble
MDFKHLTQFKDIIELDKRPVKLDERETFNVSWGIDENYQVGAAISIASILENNKQNKFTFHIIADYLDKEYIELLSQLATKYQTVIKLYHIDSEPLKALPQSNIWPVSIYYRLLSFDYFSARLDSLLYLDADIVCKGSLNELIALEFKDEYGAVVIDVDAMQSKSAERLCNEDFNGSYFNSGVMYINLREWLKQRLTEKFFDLLSDESIIKKLKYPDQDILNLMFLHHAKILPRKYNCIYTIKSEFEEKNSEYYTRFINDDTVFIHYTGITKPWHDWANYASADYFRNIYNISPWRNIPYKKAVKKHEYKEKYKHLLYQKKFLDGVFTAIKYNVMKG	not soluble
MRKQWLGICIAAGMLAACTSDDGQQQTVSVPQPAVCNGPIVEISGADPRFEPLNATANQDYQRDGKSYKIVQDPSRFIQAGLAAIYDAEPGSNLTASGEAFDPTQLTAAHPTLPIPSYARITNLANGRMIVVRINDRGPYGNDRVISLSRAAADRLNTSNNTKVRIDPIIVAQDGSLSGPGMACTTVAKQTYALPAPPDLSGGAGTSSVSGPQGDILPVSNSTLKSEDPTGAPVTSSGFLGAPTTLAPGVLEGSEPTPAPQPVVTAPSTTPATSPAMVTPQAASQSASGNFMVQVGAVSDQARAQQYQQQLGQKFGVPGRVTQNGAVWRIQLGPFANKAEASTLQQRLQTEAQLQSFITTAQ	not soluble
MSAFYQIFHDTHYKYDTPVSLAQQLAHLWPRSSPWQRCTEQALEIFPAPTTRRDELDVFGNPLTRLAFERPHDELQVNARLRIEVLERPQLDFNLSPEWEVTRNALTYSAKPMTEDILEACRYRFESPYVHLKRSFVEFSQDCFPVGRPLLLGVQALMEKIFDEFTFDEEATQVATPLVEVLESRRGVCQDFAHLMLACLRSRGLAARYVSGYLLTQPPPGQPRLIGADASHAWVSVFCPASGWVDFDPTNNVQPALEHISLAWGRDFSDVSPLRGVILGGGSHDPDVRVTVMPVSA	not soluble
MVLNIKRASSLDGATINVQDVLKPFDHQVGGHTPFTSLPNGHLLKPCEEREILFYQKMPKILKSIAPLCCSTIQGSSVSTLDDSCSNCRHHQLENVVIPESIEGSPILNKRKLSKNFIVLSDLTYRMKSPRILDLKLGTRQHGDQATVSKIACMTAKCQATTSATLGIRLCGMKIPFLEQNSQNFAPNFAPNSAAPNFAPKSEISINKYMGRSMDKTDLFLAVKQFFDVPEAVLEEVERRLLGIRDVLCGADGVRLFGASLLIVIESNFSDSQLPIDNLVRIKVVDFANATFGGLQGDSFYDGRDDGSILGLETLLEIVKGKN	not soluble
MSKKSQIIETATRLFAEHGFENTPVSLICEEAEVSKGAVFHHFKNKNDILREVFIHITTIIEETDKNDVHLATQEDPLEAAIHEIFDGMSVAKYRKMYQFNFSVMVHPTTRAIVADLIEDRYQQLQTSAEEIFRAVGYSNPVVITKMFIAEIDGIAMNYLLNNDFPLMDIKQEFIKKYCQ	not soluble
GPGSMPVPSYWRMACRSYQFTICATSYLLRWRAPAVTQGSGALVKLPHLVRGARLQRGLLVTDAMIMKLGLVDDFIDEMKKQGTELAIYKDVLPNPTIDMVEEASVLYRKNRCDYLVAVGGGSVMDCAKLIGVRQARPRTPLPYMRGLLRVLWPLPPLIAVPTTAGTGSECTIAAVVSDPAKKDKLVVMDPFLTPSHCVLDPALTLTLPKFVTATAGMDALTHVVEAYTNVFHYRTVDKAALRAMELLAKYLPCAYKDGSNLEAREKMLHASYLAGLSFTRAGVGNVHAAAHAVGGLYNAPHGYVNAVILPHVLDMYGSAAHKSLARLAEAANIVGANDAEKAVNFISWVREMNAQMQIPTTLGAGDSRWAPQEEDIPFLVKHAVTEANPFYAVPVIFGEEEMTELFRRVM	not soluble
MGSVAARDYVGIATKYAEAAVADKGRKRHGRWIRLAAKRFLDDLKRARRRGTPFFFDEWHANDACDFIEKLPHVEGKWETPTIVMHPSHVFFVVQLFGFRRRDAIKVEGWGDDDTFHPRRFTSALFAVARKNAKSTLASAILLYCLCCEPEEGAQVISAATTFDQASIIFRASKRMVEKTPDLAEAFGLATWAKSISRFETGSSYKAVHAKASTQDGLNPSHTGLDEIHAHKTADLLNVLQSAAGARANPLWLFTTTEGYTNAGPWAEIRGFVFALLRGVLGTQADHFLALFYALDNEDKSAKITQDDEFDESKWIKANPLLDVNPHLKAAIRKEAVEAKQMPSKLAEFRIKRCNRPASTASGWVDLTKWAKCGGAVDLDWLAGYPCWGGLDLASTTDIAAFRLLWLVEGVWYTHGWRWVPSEAVKQRTERATVPYAGWVEAGYLLQTEGDVTDYSVIERDILAAVQRFDPQQIAYDAWNAADLVNRLVAASVPMVQFVQGTKSYHPAMQALELAYVGGKLVHGGDPVLAWCASNLVARRDVNLSMAPDRKRSADKIDDMAALLMAMGLAVASDDAEDLSDFFNNAVIGLEHHHHHH	soluble
MGSDKIHHHHHHMTEKWLSIVGIGEDGLQGLSAIARSLVDRAKVIVGGDRHLAMLPTDDQREKIVWTSPISISVDEIIQRRGQSICVLASGDPMCYGIGVTLMRRIPVSEMTIIPAPSAFSLACARMGWSLTEVETLSLNGRPSSLLQSYIYPKARLLILSGGKDTPAIVAKILTNRGYGGSEITVLERMGGTHERIVEGTAASWSETEVAALNAIAVYCIADAGVIPLPRLPGLPDNAYHHDGQLTKREVRAITLAALAPTPGQLLWDVGAGCGSISIEWMRSNARCRAIAIEQNSSRLLYIADNAATLGTPNVQIIEGKAPHALKDLPAPDAIFIGGGVTATGLFDVCWEALRPGGRLVANVVTVEGEQTLFQWHERVGGDLTRVAIQRTEPIGKFLGWRAMAPVTQWVVVK	not soluble
MGHHHHHHSHMVTSITATANQMPANPPKTVFEFSTEINRTIEKDVMQAVVYSRKTGKQLPDLKKSVSLHLNKVIDNAKKQSDIELEANGVRNFVNYDNNNKPDGWVAEGRVYLKSKNFEALAKVLEQLDSEVAISDIYFSVSPEKAKTLENEMILDVLKQFKHKAEVVQAGLNAKNYVLTDVKLDTPNGNLDQFEVRSFAMMARSVRPASAKEELSLEPGKATLSARASGKVQFE	soluble
MGSDKIHHHHHHMDFYTIQFDDLANFESAGIFVNNKKWKHSHRILSSFEIIVMIEGVLPIQVSNTQYRVKPNKLLIIPPSAEHFGFEFTTSDIKFIWIHFNCSKFKINDEKSLFLSNIENSSIILPNYSNKLDVQRIILMSNHLLDITQENVNSIYLNLFLNSTLHEINYQTQKILKERQLSNLYLQPVREFIRINCFEDIDLGSIATHFNYNKSYLSRKYKKVMGIGIKQQINKFRISRAEYLLSNTSLTVQEISSQIGFNDEKYFMRLFRKNTNSTPSEYRKLYSQRHFNKE	not soluble
MGSDKIHHHHHHLEKAALILEGGALRSFFTSAVLDYFLEKQMDFEYIHGVSAGTMAAMNYISKQKRRSADVNLHFLHDKRYIGFNNLIRNGGIFNLDFLFSPECYDYSPFDYKAYNESKQIFEITATNVLTGKADIFRKTDTDGQEEAVKASASMPLVSDIRVVNHQPYLDGGIADSIPFRRAQELGYEKIVVVLTRDISYRKPENSRAMNRLVKFRYRDFPRFVQAFADRPQQYNRSLAEIERLEREGKIFVIRPQEPVSVSRVERDDKKLMALYEKGTEVIQNQFADLQKYLAQ	not soluble
MSKPEFIARQGRKPTGWLGHIVARVMARETRPENDRALSFLDLADGDSLIDIGCGHGETLFQADRIVRLSGSVGVDFSEVMLKRARARNRDAVWDTRMAFHCADTAALPFPDKRFGKALSVHTIYFWPNPAAHLAEAFRVLRRGGRFLFCYRSTADRRAVEEFPDTVYRFPSVQEVEEKLKLVGFLGPETTTEDIKGRLTHWSIAEKPLEHHHHHH	soluble
MGSDKIHHHHHHGQYIKKETVNSQVYAVIYAEGLAGSAQWVSGFKMMKNDATIRHQVSRGNGGNPIVNDRIPMRFIIAPTDVANVTWMQAEGAGDGNGNLNADFRSTAATGCRSYKIAGDPNRKWRVPTQRELQLMWLFREPVGVIYPAAQMENVSSKIYWAATEEDAANAWYFDFKQGVPQCSWQLKTTSSNVRCVSDY	not soluble
MATWEEYLGAQQANDGVQFTWNMWPHSRVDSQKLVVPLTCFFTPLKERPSTEVAQPPLEYDPVLCQKASCKAILNPLCAVDYRAKIWMCPFCNNRNPFPAHYAAIAEDNRPPELYPQFTTIEYTLRKATTMPPIFVFVVDTCMTAEELKSLKECLQTALSLLPADALVGLITYGRMVQLHELNTQGISRSYVFKGTKEVTAKQIKDVMAGGGLSQRPAAGAPGAPAGAPGAPMAMGSGAAPLGQLPGSGLPGGLPRGGGPPLPGAAQGIVAPGGGAPVPHAPANKFLQPISECDESINDLIDQISIDRWPVPQGHRPLRATGAALAVAVTLLESCFPSTGARIMSFIGGACTHGPGAVVGEELKNPIRSWNSIKEDAAPYMKKAIKFYDGLAARIVKNGHAVDVYSCALDQTGLLEMKNMFNSSGGHVVMGDSFNSSLFKQTYQRSFDKDSAGNLKMGFNATMEVKVGAGLKIEGVLGCCASGNVRNANVSDQEMGIGGTCQWKFGAISPRTTIGVVFEIAAQHGSAIPQGGRGMVQFVTQYQHADGRKRIRVTTTCRTWADMATQQPNIAYGFDQEAAAVAIARLASFRASNENDTPEALRWLDRSLIRLCQKFGEYSKDDPNSFRLSDKFSLFPQFMFHLRRSQFLQVFNNSPDETAYYRHILFSENVLESTTMIQPVLFSYSFNGPPEPVLLDTSSILADRILLMDDYFHVLIYHGQTIAQWRKQNFHENPQYATFKQLLEAPVADATSILQERFPMPRYIVTEHEGSQARFLLSKVNPSLTHNNPYANEAGSAVFTDDVSLQVFMEHLKKLSSSSST	not soluble
MSLATLLHIDSSVFPSAASASRAVAETFRTAWQEQHPDGTVIYRDLSANPVPHITADAHTAGFADPATHTPGQAAAFAEREKLIAELEQADAVLIGAPMYNYAIPSTLKAWLDNVILMGRTAANENSKVTGTPVTVIASRGGSYAPGTPREPYEYVQNYLKAVLSDALGLELEFIVPELTMAAHNPAMSELVPLAEASRAKAHEDAAAKAKELADRFAAEGHHHHHH	soluble
